From US20240116985A1, “STAPLED PEPTIDES AND METHODS THEREOF” (priority 2020, published 2024)
Starred links: 1 amine or outer side, 2 acyl side, 3 side chain; linkers in the order of their positions; H or OH if unused. Positions of bridges follow the written chain, without caps; N, C: chain ends. Non-standard residues stand in square brackets, D forms with d. Primed or numbered codes have the meaning given here. PyrS2″ = (S)-3-amino-1-((pent-4-en-1-yloxy)carbonyl)pyrrolidine-3-carboxylic acid (stapling residue), C=CCCCOC(=O)N1CC[C@@](N[*:1])(C(=O)[*:2])C1; B5(4) = 2,2-bis(4-pentenyl)glycine = 2-amino-2-(pent-4-en-1-yl)hept-6-enoic acid (stitching residue), C=CCCCC(CCCC=C)(N[*:1])C(=O)[*:2]; B5(8) = 2,2-bis(4-pentenyl)glycine (2-amino-2-(pent-4-en-1-yl)hept-6-enoic acid, stitching residue), C=CCCCC(CCCC=C)(N[*:1])C(=O)[*:2]; TfeGA = (S)-2-amino-3-((carboxymethyl)(2,2,2-trifluoroethyl)amino)propanoic acid, O=C([C@H](CN(CC(=O)[*:3])CC(F)(F)F)N[*:1])[*:2]; (EtSSpy)AspE = (S)-2-amino-4-oxo-4-(2-(pyridin-2-yldisulfaneyl)ethoxy)butanoic acid, O=C(C[C@H](N[*:1])C(=O)[*:2])OCCSSc1ccccn1; PyrS2 = (S)-3-amino-1-((pent-4-en-1-yloxy)carbonyl)pyrrolidine-3-carboxylic acid, C=CCCCOC(=O)N1CC[C@@](N[*:1])(C(=O)[*:2])C1; B5 = 2-amino-2-(pent-4-en-1-yl)hept-6-enoic acid, C=CCCCC(CCCC=C)(N[*:1])C(=O)[*:2]; Phe(2-Cl) = N[C@@H](Cc1ccccc1Cl)C(=O)O; Bta = N[C@@H](Cc1csc2ccccc12)C(=O)O; αAllylPro = C=CC[C@@]1(C(=O)O)CCCN1; tBuAla = CC(C)(C)C[C@H](N)C(=O)O; 3Thi = N[C@@H](Cc1ccsc1)C(=O)O; S8 = C=CCCCCCC[C@](C)(N)C(=O)O

B1: I-685 (peptide)
peptide: Ac-[αAllylPro]D[tBuAla][B5(4)]DEAAFN[PyrS2″]F[Bta]Q-NH2
modifications: staple 1-4, 4-11; not fully specified; printed as Ac-PL3-Asp-Npg-B5-Asp-Glu-Ala-Ala-Phe-Asn-PyrS2-Phe-BztA-Gln-NH2
B2: I-690 (peptide)
peptide: Ac-[αAllylPro]D[tBuAla][B5(4)]DEAAFN[PyrS2″][3Thi][Bta]Q-NH2
modifications: staple 1-4, 4-11; not fully specified; printed as Ac-PL3-Asp-Npg-B5-Asp-Glu-Ala-Ala-Phe-Asn-PyrS2-3Thi-BztA-Gln-NH2
B3: I-691 (peptide)
peptide: Ac-[αAllylPro]D[tBuAla][B5(4)]DEAAFN[PyrS2″][3Thi][Bta]Q-NH2
modifications: staple 1-4, 4-11; not fully specified; printed as Ac-PL3-Asp-Npg-B5-Asp-Glu-Ala-Ala-Phe-Asn-PyrS2-3Thi-BztA-Gln-NH2
B4: I-684 (peptide)
peptide: Ac-[αAllylPro]D[tBuAla][B5(4)]DEAAFN[PyrS2″]F[Bta]Q-NH2
modifications: staple 1-4, 4-11; not fully specified; printed as Ac-PL3-Asp-Npg-B5-Asp-Glu-Ala-Ala-Phe-Asn-PyrS2-Phe-BztA-Gln-NH2
B5: I-693 (peptide)
peptide: Ac-[αAllylPro]D[tBuAla][B5(4)]DEAAFN[PyrS2″]F[Bta]H-NH2
modifications: staple 1-4, 4-11; not fully specified; printed as Ac-PL3-Asp-Npg-B5-Asp-Glu-Ala-Ala-Phe-Asn-PyrS2-Phe-BztA-His-NH2
B6: I-692 (peptide)
peptide: Ac-[αAllylPro]D[tBuAla][B5(4)]DEAAFN[PyrS2″]F[Bta]H-NH2
modifications: staple 1-4, 4-11; not fully specified; printed as Ac-PL3-Asp-Npg-B5-Asp-Glu-Ala-Ala-Phe-Asn-PyrS2-Phe-BztA-His-NH2

target: full-length beta-Catenin (Uniprot ID P35222) (Homo sapiens (Human)) (UniProt P35222); experiment: fluorescence polarization competition; 10 nM full-length beta-catenin + 10 nM 5FAM-TCF4(10-53) as competitor probe; peptide titrated
Sequence (P35222 2-781 limits assumed): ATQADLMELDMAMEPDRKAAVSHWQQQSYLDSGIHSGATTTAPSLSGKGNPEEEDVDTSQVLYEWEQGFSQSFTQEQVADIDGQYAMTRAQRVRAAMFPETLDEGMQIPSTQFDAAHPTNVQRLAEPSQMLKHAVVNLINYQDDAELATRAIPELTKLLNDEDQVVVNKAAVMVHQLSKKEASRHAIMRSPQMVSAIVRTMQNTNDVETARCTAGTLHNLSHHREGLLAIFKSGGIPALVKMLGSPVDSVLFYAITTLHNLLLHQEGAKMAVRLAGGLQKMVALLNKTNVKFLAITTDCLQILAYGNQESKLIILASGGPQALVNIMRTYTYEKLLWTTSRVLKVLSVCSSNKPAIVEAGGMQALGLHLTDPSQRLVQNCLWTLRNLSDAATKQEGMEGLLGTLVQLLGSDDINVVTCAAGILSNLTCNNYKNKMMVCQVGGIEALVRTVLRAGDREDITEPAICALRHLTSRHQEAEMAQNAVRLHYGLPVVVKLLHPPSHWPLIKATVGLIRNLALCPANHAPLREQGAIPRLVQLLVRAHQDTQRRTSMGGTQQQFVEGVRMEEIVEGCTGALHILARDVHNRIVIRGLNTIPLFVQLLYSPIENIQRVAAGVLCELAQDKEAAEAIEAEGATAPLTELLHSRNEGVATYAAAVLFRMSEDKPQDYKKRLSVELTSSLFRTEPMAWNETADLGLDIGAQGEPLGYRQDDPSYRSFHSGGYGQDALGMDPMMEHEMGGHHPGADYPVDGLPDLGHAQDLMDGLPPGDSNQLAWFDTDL

IC50	Binder
235 nM	Ac-[αAllylPro]D[tBuAla][B5(4)]NTAAFN[PyrS2″][3Thi][Bta]N-NH2 (staple 1-4, 4-11) [I-1746]
402 nM	Ac-[αAllylPro]D[tBuAla][B5(4)]NTAAFN[PyrS2″][3Thi][Bta]T-NH2 (staple 1-4, 4-11) [I-1745]
4390 nM	Ac-[αAllylPro]D[tBuAla][B5(4)]NTAAFW[PyrS2″][3Thi][Bta]Q-NH2 (staple 1-4, 4-11) [I-1741]
551 nM	Ac-[αAllylPro][(EtSSpy)AspE][tBuAla][B5]DDAAFN[PyrS2][Phe(2-Cl)][Bta]Q-NH2 (staple 1-4, 4-11; not fully specified) [I-1724]
867 nM	Ac-[αAllylPro]D[tBuAla][B5(4)]NTAAFN[PyrS2″][3Thi][Bta]-NH2 (staple 1-4, 4-11) [I-1742]
363 nM	Ac-[αAllylPro]D[tBuAla][B5(4)]NTAAFN[PyrS2″][3Thi][Bta]F-NH2 (staple 1-4, 4-11) [I-1744]
469 nM	Ac-[αAllylPro]D[tBuAla][B5(4)]NTAAFN[PyrS2″][3Thi][Bta]R-NH2 (staple 1-4, 4-11) [I-1743]

target: full-length beta-Catenin (Uniprot ID P35222) (Homo sapiens (Human)) (UniProt P35222); experiment: fluorescence polarization competition; full-length beta-catenin + 5FAM-TCF4(10-53) probe; peptide titrated

EC50	Binder
5 nM	Ac-[αAllylPro]D[tBuAla][B5(8)]DEAAFN[PyrS2″][3Thi][Bta]H-NH2 (staple 1-4, 4-11) [I-697]
34 nM	Ac-[αAllylPro]DI[B5(8)]D[TfeGA]AAFN[S8][3Thi][Bta]Q-NH2 (staple 1-4, 4-11) [I-701]
25 nM	B1
7 nM	B2
9 nM	B3
15 nM	B4
12 nM	B5
9 nM	B6

target: full-length beta-Catenin (Uniprot ID P35222) (Homo sapiens (Human)) (UniProt P35222); experiment: fluorescence polarization competition; full-length beta-catenin; competitor displaced: 5FAM-TCF4 10-53

IC50	Binder
5 nM	Ac-[αAllylPro]D[tBuAla][B5(8)]DEAAFN[PyrS2″][3Thi][Bta]H-NH2 (staple 1-4, 4-11) [I-697]
19 nM	Ac-[αAllylPro]D[tBuAla][B5(4)]DEAAFN[S8][3Thi][Bta]Q-NH2 (staple 1-4, 4-11; not fully specified) [I-683]
34 nM	Ac-[αAllylPro]DI[B5(8)]D[TfeGA]AAFN[S8][3Thi][Bta]Q-NH2 (staple 1-4, 4-11) [I-701]
25 nM	B1
7 nM	B2
9 nM	B3
15 nM	B4
12 nM	B5
9 nM	B6

target: Bcat-Halo (UniProt P35222); experiment: NanoBRET in HEK293 cells (Bcat-Halo / TCF4-Luc), absolute IC50; competitor: TCF4-Luc
Sequence (P35222 whole entry): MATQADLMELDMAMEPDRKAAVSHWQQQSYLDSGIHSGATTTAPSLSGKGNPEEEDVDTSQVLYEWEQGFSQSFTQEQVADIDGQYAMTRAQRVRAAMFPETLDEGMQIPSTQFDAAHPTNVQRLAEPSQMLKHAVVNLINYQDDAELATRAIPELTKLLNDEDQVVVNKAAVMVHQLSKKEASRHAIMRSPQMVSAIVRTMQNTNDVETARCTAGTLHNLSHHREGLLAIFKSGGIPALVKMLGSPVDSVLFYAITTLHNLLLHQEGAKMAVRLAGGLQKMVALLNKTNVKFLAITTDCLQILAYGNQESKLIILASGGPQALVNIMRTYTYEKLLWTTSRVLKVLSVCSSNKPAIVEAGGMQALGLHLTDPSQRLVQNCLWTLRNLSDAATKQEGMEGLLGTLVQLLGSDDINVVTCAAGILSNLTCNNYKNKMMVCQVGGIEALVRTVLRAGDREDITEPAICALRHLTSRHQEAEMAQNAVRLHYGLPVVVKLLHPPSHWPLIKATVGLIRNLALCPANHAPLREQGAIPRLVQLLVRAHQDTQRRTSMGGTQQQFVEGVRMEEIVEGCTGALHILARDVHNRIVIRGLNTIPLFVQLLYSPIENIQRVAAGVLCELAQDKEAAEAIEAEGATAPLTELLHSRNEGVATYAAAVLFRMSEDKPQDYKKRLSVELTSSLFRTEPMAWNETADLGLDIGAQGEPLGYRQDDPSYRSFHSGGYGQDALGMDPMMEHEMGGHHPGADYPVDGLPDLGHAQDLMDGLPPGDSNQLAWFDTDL

IC50	Binder
14.7 µM	Ac-[αAllylPro]D[tBuAla][B5(8)]DEAAFN[PyrS2″][3Thi][Bta]H-NH2 (staple 1-4, 4-11) [I-697]
6.7 µM	Ac-[αAllylPro]D[tBuAla][B5(4)]DEAAFN[S8][3Thi][Bta]Q-NH2 (staple 1-4, 4-11; not fully specified) [I-683]
18.1 µM	Ac-[αAllylPro]DI[B5(8)]D[TfeGA]AAFN[S8][3Thi][Bta]Q-NH2 (staple 1-4, 4-11) [I-701]
19.4 µM	B1
17.8 µM	B2
17 µM	B3
14.3 µM	B4
28.5 µM	B5
25.6 µM	B6
